Here are results for two molecules from CN115850477A (SUZHOU SHALI BIOTECHNOLOGY CO LTD, dated 2023).

In assay [1] the target is Human 4-1BB/TNFRSF9 Protein, His Tag (ACRO Biosystems) (human) (UniProt Q07011). Kind of assay: ELISA, coated 4-1BB-his, scFv clone supernatant. Background: An ELISA detects its analyte on a solid surface through an enzyme-linked reagent.
The target of assay [2] is T1, Human 4-1BB/TNFRSF9 Protein, His Tag (ACRO Biosystems) (human, UniProt Q07011 24-186).
T1 construct: Bought from ACRO Biosystems; also called 4-1BB-his; not shown: His tag
The experiment in a line: ELISA, coated Human 4-1BB His Tag 1 ug/ml, antibody from 10 ug/ml in two-fold dilutions.

Broadly, the EC50 is the concentration at which the effect is half-maximal. Low readings indicate greater potency, high ones weaker potency.

T1 sequence (Q07011 24-186 limits assumed): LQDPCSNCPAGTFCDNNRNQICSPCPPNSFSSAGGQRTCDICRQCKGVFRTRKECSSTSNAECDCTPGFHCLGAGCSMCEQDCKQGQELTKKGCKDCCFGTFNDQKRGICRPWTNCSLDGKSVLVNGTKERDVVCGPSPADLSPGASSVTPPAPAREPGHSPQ

B1: GT1C8 (scFv克隆, 初筛离心上清) (scFv, V domains shown)
VH: QMQLQESGPSLVKPSQTLSLTCSVTGDSITSGYWTWIRKFPGNRLEYMGFKSYSGSTYYNPSLKSRISITRDTSKNQYYLQLNSVTTEDTATYYCARSLLWLGAMDYWGQGTSVTVSS
VL: DIVMTQSHKFMSTSVGDRVSITCKASQDVGTAVAWYQQKPGQSPKLLIYWASTRHTGVPDRFTGSGSGTDFTLTISNVQSEDLADYFCQQYSSYPYTFGGGTKLEMKR
In assay [1], B1 registered an OD450 of 1.12.

B2: GT1C8 huIgG1型抗体 (antibody, V domains shown)
VH: QMQLQESGPSLVKPSQTLSLTCSVTGDSITSGYWTWIRKFPGNRLEYMGFKSYSGSTYYNPSLKSRISITRDTSKNQYYLQLNSVTTEDTATYYCARSLLWLGAMDYWGQGTSVTVSS
VL: DIVMTQSHKFMSTSVGDRVSITCKASQDVGTAVAWYQQKPGQSPKLLIYWASTRHTGVPDRFTGSGSGTDFTLTISNVQSEDLADYFCQQYSSYPYTFGGGTKLEMKR
notes: GT1C8 is the only antibody described, but the name GT1C8 is never tied to these numbers in words; also called GT1C8的huIgG1抗体; GT1C8克隆hIgG1形式抗体
In assay [2], B2 returned an EC50 of 0.102 µg/mL.
